Data taken from patent US20230357348A1 (AstraZeneca / MedImmune, published 2023).
Starred links: 1 amine or outer side, 2 acyl side, 3 side chain; linkers in the order of their positions; H or OH if unused. Non-standard residues stand in square brackets, D forms with d. Groups on a side chain read outwards from the residue. No end group written: not given here. *: point of attachment. C20 diacid = O=C(O)CCCCCCCCCCCCCCCCCCC(=O)*; C18 diacid = O=C(O)CCCCCCCCCCCCCCCCC(=O)*; γGlu = O=C(O)[C@H](CCC(=O)[*:2])N[*:1]; αMeF = C[C@](N)(Cc1ccccc1)C(=O)O; AEEA = NCCOCCOCC(=O)O; Aib = CC(C)(N)C(=O)O

B1: Peptide 4 (peptide)
peptide: HSQGS[αMeF]TSDVSK[αMeF]LDSK([AEEA-AEEA-γGlu-C18 diacid])AAQDFVQWIANT-NH2
modifications: N-terminus assumed
SMILES: CC[C@H](C)[C@H](NC(=O)[C@H](Cc1c[nH]c2ccccc12)NC(=O)[C@H](CCC(N)=O)NC(=O)[C@@H](NC(=O)[C@H](Cc1ccccc1)NC(=O)[C@H](CC(=O)O)NC(=O)[C@H](CCC(N)=O)NC(=O)[C@H](C)NC(=O)[C@H](C)NC(=O)[C@H](CCCCNC(=O)COCCOCCNC(=O)COCCOCCNC(=O)CC[C@H](NC(=O)CCCCCCCCCCCCCCCCC(=O)O)C(=O)O)NC(=O)[C@H](CO)NC(=O)[C@H](CC(=O)O)NC(=O)[C@H](CC(C)C)NC(=O)[C@](C)(Cc1ccccc1)NC(=O)[C@H](CCCCN)NC(=O)[C@H](CO)NC(=O)[C@@H](NC(=O)[C@H](CC(=O)O)NC(=O)[C@H](CO)NC(=O)[C@@H](NC(=O)[C@](C)(Cc1ccccc1)NC(=O)[C@H](CO)NC(=O)CNC(=O)[C@H](CCC(N)=O)NC(=O)[C@H](CO)NC(=O)[C@@H](N)Cc1c[nH]cn1)[C@@H](C)O)C(C)C)C(C)C)C(=O)N[C@@H](C)C(=O)N[C@@H](CC(N)=O)C(=O)N[C@H](C(N)=O)[C@@H](C)O
B2: Peptide 5 (peptide)
peptide: H[Aib]QGS[αMeF]TSDVSK[αMeF]LDSK([AEEA-AEEA-γGlu-γGlu-C18 diacid])AAQD[αMeF]VQ[Aib]IAN-NH2
modifications: N-terminus assumed
SMILES: CC[C@H](C)[C@H](NC(=O)C(C)(C)NC(=O)[C@H](CCC(N)=O)NC(=O)[C@@H](NC(=O)[C@](C)(Cc1ccccc1)NC(=O)[C@H](CC(=O)O)NC(=O)[C@H](CCC(N)=O)NC(=O)[C@H](C)NC(=O)[C@H](C)NC(=O)[C@H](CCCCNC(=O)COCCOCCNC(=O)COCCOCCNC(=O)CC[C@H](NC(=O)CC[C@H](NC(=O)CCCCCCCCCCCCCCCCC(=O)O)C(=O)O)C(=O)O)NC(=O)[C@H](CO)NC(=O)[C@H](CC(=O)O)NC(=O)[C@H](CC(C)C)NC(=O)[C@](C)(Cc1ccccc1)NC(=O)[C@H](CCCCN)NC(=O)[C@H](CO)NC(=O)[C@@H](NC(=O)[C@H](CC(=O)O)NC(=O)[C@H](CO)NC(=O)[C@@H](NC(=O)[C@](C)(Cc1ccccc1)NC(=O)[C@H](CO)NC(=O)CNC(=O)[C@H](CCC(N)=O)NC(=O)C(C)(C)NC(=O)[C@@H](N)Cc1c[nH]cn1)[C@@H](C)O)C(C)C)C(C)C)C(=O)N[C@@H](C)C(=O)N[C@@H](CC(N)=O)C(N)=O
B3: Peptide 153 (peptide)
peptide: H[Aib]QGTFTSDVSK[αMeF]LDSK([AEEA-AEEA-γGlu-C20 diacid])RAQDFVRWLL[Aib]E-OH
modifications: N-terminus assumed
SMILES: CC(C)C[C@H](NC(=O)[C@H](Cc1c[nH]c2ccccc12)NC(=O)[C@H](CCCNC(=N)N)NC(=O)[C@@H](NC(=O)[C@H](Cc1ccccc1)NC(=O)[C@H](CC(=O)O)NC(=O)[C@H](CCC(N)=O)NC(=O)[C@H](C)NC(=O)[C@H](CCCNC(=N)N)NC(=O)[C@H](CCCCNC(=O)COCCOCCNC(=O)COCCOCCNC(=O)CC[C@H](NC(=O)CCCCCCCCCCCCCCCCCCC(=O)O)C(=O)O)NC(=O)[C@H](CO)NC(=O)[C@H](CC(=O)O)NC(=O)[C@H](CC(C)C)NC(=O)[C@](C)(Cc1ccccc1)NC(=O)[C@H](CCCCN)NC(=O)[C@H](CO)NC(=O)[C@@H](NC(=O)[C@H](CC(=O)O)NC(=O)[C@H](CO)NC(=O)[C@@H](NC(=O)[C@H](Cc1ccccc1)NC(=O)[C@@H](NC(=O)CNC(=O)[C@H](CCC(N)=O)NC(=O)C(C)(C)NC(=O)[C@@H](N)Cc1c[nH]cn1)[C@@H](C)O)[C@@H](C)O)C(C)C)C(C)C)C(=O)N[C@@H](CC(C)C)C(=O)NC(C)(C)C(=O)N[C@@H](CCC(=O)O)C(=O)O
B4: Peptide 140 (peptide)
peptide: H[Aib]QGTFTSDVSK[αMeF]LDTK([AEEA-AEEA-γGlu-C18 diacid])RAQDFVRWLLE[Aib]G-OH
modifications: N-terminus assumed
SMILES: CC(C)C[C@H](NC(=O)[C@H](Cc1c[nH]c2ccccc12)NC(=O)[C@H](CCCNC(=N)N)NC(=O)[C@@H](NC(=O)[C@H](Cc1ccccc1)NC(=O)[C@H](CC(=O)O)NC(=O)[C@H](CCC(N)=O)NC(=O)[C@H](C)NC(=O)[C@H](CCCNC(=N)N)NC(=O)[C@H](CCCCNC(=O)COCCOCCNC(=O)COCCOCCNC(=O)CC[C@H](NC(=O)CCCCCCCCCCCCCCCCC(=O)O)C(=O)O)NC(=O)[C@@H](NC(=O)[C@H](CC(=O)O)NC(=O)[C@H](CC(C)C)NC(=O)[C@](C)(Cc1ccccc1)NC(=O)[C@H](CCCCN)NC(=O)[C@H](CO)NC(=O)[C@@H](NC(=O)[C@H](CC(=O)O)NC(=O)[C@H](CO)NC(=O)[C@@H](NC(=O)[C@H](Cc1ccccc1)NC(=O)[C@@H](NC(=O)CNC(=O)[C@H](CCC(N)=O)NC(=O)C(C)(C)NC(=O)[C@@H](N)Cc1c[nH]cn1)[C@@H](C)O)[C@@H](C)O)C(C)C)[C@@H](C)O)C(C)C)C(=O)N[C@@H](CC(C)C)C(=O)N[C@@H](CCC(=O)O)C(=O)NC(C)(C)C(=O)NCC(=O)O
B5: Peptide 150 (peptide)
peptide: H[Aib]QGTFTSDVSK[αMeF]LDSK([AEEA-AEEA-γGlu-C18 diacid])RAQDFVQWLL[Aib]TE-OH
modifications: N-terminus assumed
SMILES: CC(C)C[C@H](NC(=O)[C@H](Cc1c[nH]c2ccccc12)NC(=O)[C@H](CCC(N)=O)NC(=O)[C@@H](NC(=O)[C@H](Cc1ccccc1)NC(=O)[C@H](CC(=O)O)NC(=O)[C@H](CCC(N)=O)NC(=O)[C@H](C)NC(=O)[C@H](CCCNC(=N)N)NC(=O)[C@H](CCCCNC(=O)COCCOCCNC(=O)COCCOCCNC(=O)CC[C@H](NC(=O)CCCCCCCCCCCCCCCCC(=O)O)C(=O)O)NC(=O)[C@H](CO)NC(=O)[C@H](CC(=O)O)NC(=O)[C@H](CC(C)C)NC(=O)[C@](C)(Cc1ccccc1)NC(=O)[C@H](CCCCN)NC(=O)[C@H](CO)NC(=O)[C@@H](NC(=O)[C@H](CC(=O)O)NC(=O)[C@H](CO)NC(=O)[C@@H](NC(=O)[C@H](Cc1ccccc1)NC(=O)[C@@H](NC(=O)CNC(=O)[C@H](CCC(N)=O)NC(=O)C(C)(C)NC(=O)[C@@H](N)Cc1c[nH]cn1)[C@@H](C)O)[C@@H](C)O)C(C)C)C(C)C)C(=O)N[C@@H](CC(C)C)C(=O)NC(C)(C)C(=O)N[C@H](C(=O)N[C@@H](CCC(=O)O)C(=O)O)[C@@H](C)O
B6: Peptide 166 (peptide)
peptide: H[Aib]QGTFTSDVSK[αMeF]LDSK([AEEA-AEEA-γGlu-C18 diacid])RARDFVRWLL[Aib]TE-OH
modifications: N-terminus assumed
SMILES: CC(C)C[C@H](NC(=O)[C@H](Cc1c[nH]c2ccccc12)NC(=O)[C@H](CCCNC(=N)N)NC(=O)[C@@H](NC(=O)[C@H](Cc1ccccc1)NC(=O)[C@H](CC(=O)O)NC(=O)[C@H](CCCNC(=N)N)NC(=O)[C@H](C)NC(=O)[C@H](CCCNC(=N)N)NC(=O)[C@H](CCCCNC(=O)COCCOCCNC(=O)COCCOCCNC(=O)CC[C@H](NC(=O)CCCCCCCCCCCCCCCCC(=O)O)C(=O)O)NC(=O)[C@H](CO)NC(=O)[C@H](CC(=O)O)NC(=O)[C@H](CC(C)C)NC(=O)[C@](C)(Cc1ccccc1)NC(=O)[C@H](CCCCN)NC(=O)[C@H](CO)NC(=O)[C@@H](NC(=O)[C@H](CC(=O)O)NC(=O)[C@H](CO)NC(=O)[C@@H](NC(=O)[C@H](Cc1ccccc1)NC(=O)[C@@H](NC(=O)CNC(=O)[C@H](CCC(N)=O)NC(=O)C(C)(C)NC(=O)[C@@H](N)Cc1c[nH]cn1)[C@@H](C)O)[C@@H](C)O)C(C)C)C(C)C)C(=O)N[C@@H](CC(C)C)C(=O)NC(C)(C)C(=O)N[C@H](C(=O)N[C@@H](CCC(=O)O)C(=O)O)[C@@H](C)O
B7: Peptide 152 (peptide)
peptide: H[Aib]QGTFTSDVSK[αMeF]LDSK([AEEA-AEEA-γGlu-C18 diacid])RAQDFVRWLL[Aib]E-OH
modifications: N-terminus assumed
SMILES: CC(C)C[C@H](NC(=O)[C@H](Cc1c[nH]c2ccccc12)NC(=O)[C@H](CCCNC(=N)N)NC(=O)[C@@H](NC(=O)[C@H](Cc1ccccc1)NC(=O)[C@H](CC(=O)O)NC(=O)[C@H](CCC(N)=O)NC(=O)[C@H](C)NC(=O)[C@H](CCCNC(=N)N)NC(=O)[C@H](CCCCNC(=O)COCCOCCNC(=O)COCCOCCNC(=O)CC[C@H](NC(=O)CCCCCCCCCCCCCCCCC(=O)O)C(=O)O)NC(=O)[C@H](CO)NC(=O)[C@H](CC(=O)O)NC(=O)[C@H](CC(C)C)NC(=O)[C@](C)(Cc1ccccc1)NC(=O)[C@H](CCCCN)NC(=O)[C@H](CO)NC(=O)[C@@H](NC(=O)[C@H](CC(=O)O)NC(=O)[C@H](CO)NC(=O)[C@@H](NC(=O)[C@H](Cc1ccccc1)NC(=O)[C@@H](NC(=O)CNC(=O)[C@H](CCC(N)=O)NC(=O)C(C)(C)NC(=O)[C@@H](N)Cc1c[nH]cn1)[C@@H](C)O)[C@@H](C)O)C(C)C)C(C)C)C(=O)N[C@@H](CC(C)C)C(=O)NC(C)(C)C(=O)N[C@@H](CCC(=O)O)C(=O)O
B8: Peptide 151 (peptide)
peptide: H[Aib]QGTFTSDVSK[αMeF]LDSK([AEEA-AEEA-γGlu-C20 diacid])RAQDFVRWLL[Aib]TE-OH
modifications: N-terminus assumed
SMILES: CC(C)C[C@H](NC(=O)[C@H](Cc1c[nH]c2ccccc12)NC(=O)[C@H](CCCNC(=N)N)NC(=O)[C@@H](NC(=O)[C@H](Cc1ccccc1)NC(=O)[C@H](CC(=O)O)NC(=O)[C@H](CCC(N)=O)NC(=O)[C@H](C)NC(=O)[C@H](CCCNC(=N)N)NC(=O)[C@H](CCCCNC(=O)COCCOCCNC(=O)COCCOCCNC(=O)CC[C@H](NC(=O)CCCCCCCCCCCCCCCCCCC(=O)O)C(=O)O)NC(=O)[C@H](CO)NC(=O)[C@H](CC(=O)O)NC(=O)[C@H](CC(C)C)NC(=O)[C@](C)(Cc1ccccc1)NC(=O)[C@H](CCCCN)NC(=O)[C@H](CO)NC(=O)[C@@H](NC(=O)[C@H](CC(=O)O)NC(=O)[C@H](CO)NC(=O)[C@@H](NC(=O)[C@H](Cc1ccccc1)NC(=O)[C@@H](NC(=O)CNC(=O)[C@H](CCC(N)=O)NC(=O)C(C)(C)NC(=O)[C@@H](N)Cc1c[nH]cn1)[C@@H](C)O)[C@@H](C)O)C(C)C)C(C)C)C(=O)N[C@@H](CC(C)C)C(=O)NC(C)(C)C(=O)N[C@H](C(=O)N[C@@H](CCC(=O)O)C(=O)O)[C@@H](C)O

target: human GLP-1 receptor (hGLP-1R) (human, UniProt P43220 24-463); test: cell-based or functional assay

First: B1
Second: B2
The “hGLP-1R EC50 (pM)” value of the first is lower: 240 pM for the first, 283 pM for the second.

Compared with B3, B4 is lower in “hGLP-1R EC50 (pM)” value: 41.2 pM for the first, 22.7 pM for the second.

First: B5
Second: B6
The “hGLP-1R EC50 (pM)” value of the first is higher: 166 pM for the first, 48 pM for the second.

Compared with B7, B8 is higher in “hGLP-1R EC50 (pM)” value: 11.9 pM for the first, 111 pM for the second.

target: human glucagon receptor (hGCGR) (human, UniProt P47871 26-477); test: cell-based or functional assay
Sequence (P47871 26-477): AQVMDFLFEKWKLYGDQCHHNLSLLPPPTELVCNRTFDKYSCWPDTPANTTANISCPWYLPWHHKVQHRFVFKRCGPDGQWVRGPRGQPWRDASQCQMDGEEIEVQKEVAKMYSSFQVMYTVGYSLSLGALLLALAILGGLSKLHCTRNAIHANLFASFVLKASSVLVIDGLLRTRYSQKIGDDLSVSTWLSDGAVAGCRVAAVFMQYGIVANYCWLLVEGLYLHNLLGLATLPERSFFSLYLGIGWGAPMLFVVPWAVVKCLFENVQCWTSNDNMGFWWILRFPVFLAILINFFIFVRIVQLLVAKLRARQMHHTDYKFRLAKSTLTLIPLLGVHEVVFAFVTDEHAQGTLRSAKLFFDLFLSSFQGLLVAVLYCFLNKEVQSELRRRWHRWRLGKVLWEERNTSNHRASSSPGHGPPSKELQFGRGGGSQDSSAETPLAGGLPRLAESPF

Going from B1 to B2, the “hGluc-R EC50 (pM)” value rises from 1170 pM to 7140 pM.

First: B3
Second: B5
The “hGluc-R EC50 (pM)” value of the first is lower: 99 pM for the first, 355 pM for the second.

Compared with B6, B7 is lower in “hGluc-R EC50 (pM)” value: 270 pM for the first, 20.4 pM for the second.

With B8 the “hGluc-R EC50 (pM)” value was 178 pM.
